Measurements published in article PMC11065315.

Columns and labels:
[1] = biological target: eIFiso4F (unphosphorylated; wheat eIFiso4E and eIFiso4G) (wheat)
[2] = biological target: phosphorylated eIFiso4F (wheat eIFiso4Ep and eIFiso4Gp, phosphorylated in vitro by casein kinase 2) (wheat); assay: other fluorescence titration; 15°C; quenching of the intrinsic fluorescence of the eIFs by increasing VPg; 20 mM HEPES/KOH pH 7.6, 100 mM NaCl, 1 mM MgCl2, 1 mM DTT
[3] = biological target: phosphorylated eIFiso4F in complex with poly(A)-binding protein (wheat); assay: as above
[4] = biological target: phosphorylated eIFiso4F in complex with eIF4B and poly(A)-binding protein (wheat) (UniProt Q9AUJ7); assay: as above
[5] = biological target: phosphorylated eIFiso4F in complex with eIF4B (wheat) (UniProt Q9AUJ7); assay: as above
[6] = biological target: phosphorylated eIFiso4F (wheat eIFiso4Ep and eIFiso4Gp, phosphorylated in vitro by casein kinase 2) (wheat); assay: other fluorescence titration; Van't Hoff plot (ln Keq against 1/T) of the fluorescence titrations at 5, 10, 15, 20 and 25°C
[7] = biological target: phosphorylated eIFiso4F in complex with poly(A)-binding protein (wheat); assay: as above
[8] = biological target: phosphorylated eIFiso4F in complex with eIF4B and poly(A)-binding protein (wheat) (UniProt Q9AUJ7); assay: as above
[9] = biological target: phosphorylated eIFiso4F in complex with eIF4B (wheat) (UniProt Q9AUJ7); assay: as above
[10] = biological target: phosphorylated eIFiso4F (wheat eIFiso4Ep and eIFiso4Gp, phosphorylated in vitro by casein kinase 2) (wheat); assay: other fluorescence titration; 20°C; quenching of the intrinsic fluorescence of the eIFs by increasing VPg; 20 mM HEPES/KOH pH 7.6, 100 mM NaCl, 1 mM MgCl2, 1 mM DTT
[11] = biological target: phosphorylated eIFiso4F in complex with poly(A)-binding protein (wheat); assay: as above
[12] = biological target: phosphorylated eIFiso4F in complex with eIF4B and poly(A)-binding protein (wheat) (UniProt Q9AUJ7); assay: as above
[13] = biological target: phosphorylated eIFiso4F in complex with eIF4B (wheat) (UniProt Q9AUJ7); assay: as above
[14] = biological target: phosphorylated eIFiso4F (wheat eIFiso4Ep and eIFiso4Gp, phosphorylated in vitro by casein kinase 2) (wheat); assay: other fluorescence titration; 25°C; quenching of the intrinsic fluorescence of the eIFs (excitation 280 nm, emission 334 nm) by increasing VPg; 100 nM eIFs or BSA (results; 500 nM in the methods); 20 mM HEPES/KOH pH 7.6, 100 mM NaCl, 1 mM MgCl2, 1 mM DTT; complexes pre-formed for 15 min
[15] = biological target: phosphorylated eIFiso4F in complex with poly(A)-binding protein (wheat); assay: as above
[16] = biological target: phosphorylated eIFiso4F in complex with eIF4B and poly(A)-binding protein (wheat) (UniProt Q9AUJ7); assay: as above
[17] = biological target: phosphorylated eIFiso4F in complex with eIF4B (wheat) (UniProt Q9AUJ7); assay: as above
[18] = biological target: phosphorylated eIFiso4F (wheat eIFiso4Ep and eIFiso4Gp, phosphorylated in vitro by casein kinase 2) (wheat); assay: other fluorescence titration; 10°C; quenching of the intrinsic fluorescence of the eIFs by increasing VPg; 20 mM HEPES/KOH pH 7.6, 100 mM NaCl, 1 mM MgCl2, 1 mM DTT
[19] = biological target: phosphorylated eIFiso4F in complex with poly(A)-binding protein (wheat); assay: as above
[20] = biological target: phosphorylated eIFiso4F in complex with eIF4B and poly(A)-binding protein (wheat) (UniProt Q9AUJ7); assay: as above
[21] = biological target: phosphorylated eIFiso4F in complex with eIF4B (wheat) (UniProt Q9AUJ7); assay: as above
[22] = biological target: phosphorylated eIFiso4F (wheat eIFiso4Ep and eIFiso4Gp, phosphorylated in vitro by casein kinase 2) (wheat); assay: other fluorescence titration; 5°C; quenching of the intrinsic fluorescence of the eIFs by increasing VPg; 20 mM HEPES/KOH pH 7.6, 100 mM NaCl, 1 mM MgCl2, 1 mM DTT
[23] = biological target: phosphorylated eIFiso4F in complex with poly(A)-binding protein (wheat); assay: as above
[24] = biological target: phosphorylated eIFiso4F in complex with eIF4B and poly(A)-binding protein (wheat) (UniProt Q9AUJ7); assay: as above
[25] = biological target: phosphorylated eIFiso4F in complex with eIF4B (wheat) (UniProt Q9AUJ7); assay: as above
[26] = biological target: phosphorylated eIFiso4F (wheat eIFiso4Ep and eIFiso4Gp, phosphorylated in vitro by casein kinase 2) (wheat)

viral protein genome-linked (VPg) of turnip mosaic virus (natural protein)
luciferase translation of uncapped TEV mRNA in eIF4F/eIFiso4F/eIF4B/PABP-depleted WGE with 20 nM VPg, escalating PABP up to 200 nM against no PABP [1]: 3 fold
Kd [2]: 0.0262 µM
Kd [3]: 0.0191 µM
Kd [4]: 0.0161 µM
Kd [5]: 0.024 µM
dH [6]: -7.98 kcal/mol
dH [7]: -11.7 kcal/mol
dH [8]: -12.8 kcal/mol
dH [9]: -8.46 kcal/mol
Kd [10]: 0.031 µM
Kd [11]: 0.0265 µM
Kd [12]: 0.0195 µM
Kd [13]: 0.0293 µM
Kd [14]: 0.041 µM
Kd [15]: 0.032 µM
Kd [16]: 0.024 µM
Kd [17]: 0.0341 µM
Kd [18]: 0.021 µM
Kd [19]: 0.014 µM
Kd [20]: 0.012 µM
Kd [21]: 0.0191 µM
Kd [22]: 0.0171 µM
Kd [23]: 0.0103 µM
Kd [24]: 0.0086 µM
Kd [25]: 0.015 µM
luciferase translation of capped TEV-luc-A50 mRNA in depleted WGE supplemented with eIFiso4Fp, with against without 20 nM VPg [26]: 2.5 fold
luciferase translation of uncapped TEV-luc-A50 mRNA in depleted WGE supplemented with eIFiso4Fp, with against without 20 nM VPg [26]: 5 fold
luciferase translation of uncapped TEV-luc-A50 mRNA in depleted WGE with eIFiso4Fp and VPg, with against without added PABP [26]: 2 fold
